Bridges are numbered along the chain shown (N, C = ends). Where no end group is shown, it is not given here. [ ]: non-standard residue; d: D form. The star is where a group is joined. DOTA = O=C(O)CN1CCN(CC(=O)O)CCN(CC(=O)*)CCN(CC(=O)O)CC1; MTXCOO‑CH2CO = methotrexate-acetyl; 4Pal = N[C@@H](Cc1ccncc1)C(=O)O; hSer = N[C@@H](CCO)C(=O)O; Nva = CCC[C@H](N)C(=O)O
B1: Acetyl-D-Ser-D-Ser-D-Ser-D-Ser-D-Ser-D-Ser-D-Ser-D-Ser-D-Ser-D-Ser-L-Lys-D-Tyr-D-Tyr-cyclo[L-Cys-L-Phe-D-Trp-L-Lys-L-Thr-L-Cys]-L-Thr-NH2 (peptide)
peptide: Ac-[dS][dS][dS][dS][dS][dS][dS][dS][dS][dS]K[dY][dY]CF[dW]KTCT-NH2
modifications: disulfide 14-19
SMILES: CC(=O)N[C@H](CO)C(=O)N[C@H](CO)C(=O)N[C@H](CO)C(=O)N[C@H](CO)C(=O)N[C@H](CO)C(=O)N[C@H](CO)C(=O)N[C@H](CO)C(=O)N[C@H](CO)C(=O)N[C@H](CO)C(=O)N[C@H](CO)C(=O)N[C@@H](CCCCN)C(=O)N[C@H](Cc1ccc(O)cc1)C(=O)N[C@H](Cc1ccc(O)cc1)C(=O)N[C@H]1CSSC[C@@H](C(=O)N[C@H](C(N)=O)[C@@H](C)O)NC(=O)[C@H]([C@@H](C)O)NC(=O)[C@H](CCCCN)NC(=O)[C@@H](Cc2c[nH]c3ccccc23)NC(=O)[C@H](Cc2ccccc2)NC1=O
B2: D-Ser-D-Ser-D-Ser-D-Ser-D-Ser-D-Ser-D-Ser-D-Ser-D-Ser-D-Ser-L-Lys-D-Tyr-D-Tyr-cyclo[L-Cys-L-Phe-D-Trp-L-Lys-L-Thr-L-Cys]-L-Thr-NH2 (peptide)
peptide: [dS][dS][dS][dS][dS][dS][dS][dS][dS][dS]K[dY][dY]CF[dW]KTCT-NH2
modifications: disulfide 14-19; N-terminus assumed
SMILES: C[C@@H](O)[C@H](NC(=O)[C@@H]1CSSC[C@H](NC(=O)[C@@H](Cc2ccc(O)cc2)NC(=O)[C@@H](Cc2ccc(O)cc2)NC(=O)[C@H](CCCCN)NC(=O)[C@@H](CO)NC(=O)[C@@H](CO)NC(=O)[C@@H](CO)NC(=O)[C@@H](CO)NC(=O)[C@@H](CO)NC(=O)[C@@H](CO)NC(=O)[C@@H](CO)NC(=O)[C@@H](CO)NC(=O)[C@@H](CO)NC(=O)[C@H](N)CO)C(=O)N[C@@H](Cc2ccccc2)C(=O)N[C@H](Cc2c[nH]c3ccccc23)C(=O)N[C@@H](CCCCN)C(=O)N[C@@H]([C@@H](C)O)C(=O)N1)C(N)=O
B3: D-Ser-D-Ser-D-Ser-D-Ser-D-Ser-L-hSer-D-Tyr-D-Ser-cyclo[L-Cys-L-Phe-D-Trp-L-Lys-L-Thr-L-Cys]-L-Thr-NH2 (peptide)
peptide: [dS][dS][dS][dS][dS][hSer][dY][dS]CF[dW]KTCT-NH2
modifications: disulfide 9-14; N-terminus assumed
SMILES: C[C@@H](O)[C@H](NC(=O)[C@@H]1CSSC[C@H](NC(=O)[C@@H](CO)NC(=O)[C@@H](Cc2ccc(O)cc2)NC(=O)[C@H](CCO)NC(=O)[C@@H](CO)NC(=O)[C@@H](CO)NC(=O)[C@@H](CO)NC(=O)[C@@H](CO)NC(=O)[C@H](N)CO)C(=O)N[C@@H](Cc2ccccc2)C(=O)N[C@H](Cc2c[nH]c3ccccc23)C(=O)N[C@@H](CCCCN)C(=O)N[C@@H]([C@@H](C)O)C(=O)N1)C(N)=O
B4: D-Ser-D-Ser-D-Ser-D-Ser-D-Ser-D-Ser-D-Ser-D-Ser-D-Ser-D-Ser-D-Ser-D-Ser-D-Ser-D-Ser-D-Ser-L-Lys-D-Tyr-D-Tyr-cyclo[L-Cys-L-Phe-D-Trp-L-Lys-L-Thr-L-Cys]-L-Thr-NH2 (peptide)
peptide: [dS][dS][dS][dS][dS][dS][dS][dS][dS][dS][dS][dS][dS][dS][dS]K[dY][dY]CF[dW]KTCT-NH2
modifications: disulfide 19-24; N-terminus assumed
SMILES: C[C@@H](O)[C@H](NC(=O)[C@@H]1CSSC[C@H](NC(=O)[C@@H](Cc2ccc(O)cc2)NC(=O)[C@@H](Cc2ccc(O)cc2)NC(=O)[C@H](CCCCN)NC(=O)[C@@H](CO)NC(=O)[C@@H](CO)NC(=O)[C@@H](CO)NC(=O)[C@@H](CO)NC(=O)[C@@H](CO)NC(=O)[C@@H](CO)NC(=O)[C@@H](CO)NC(=O)[C@@H](CO)NC(=O)[C@@H](CO)NC(=O)[C@@H](CO)NC(=O)[C@@H](CO)NC(=O)[C@@H](CO)NC(=O)[C@@H](CO)NC(=O)[C@@H](CO)NC(=O)[C@H](N)CO)C(=O)N[C@@H](Cc2ccccc2)C(=O)N[C@H](Cc2c[nH]c3ccccc23)C(=O)N[C@@H](CCCCN)C(=O)N[C@@H]([C@@H](C)O)C(=O)N1)C(N)=O
B5: D-Ser-D-Ser-D-Ser-D-Gln-D-Ser-D-Ser-D-Ser-D-Gln-D-Ser-D-Ser-D-Ser-D-Gln-L-Norvaline-D-Tyr-D-Ser-cyclo[L-Cys-L-Phe-D-Trp-L-Lys-L-Thr-L-Cys]-L-Thr-NH2 (peptide)
peptide: [dS][dS][dS][dQ][dS][dS][dS][dQ][dS][dS][dS][dQ][Nva][dY][dS]CF[dW]KTCT-NH2
modifications: disulfide 16-21; N-terminus assumed
SMILES: CCC[C@H](NC(=O)[C@@H](CCC(N)=O)NC(=O)[C@@H](CO)NC(=O)[C@@H](CO)NC(=O)[C@@H](CO)NC(=O)[C@@H](CCC(N)=O)NC(=O)[C@@H](CO)NC(=O)[C@@H](CO)NC(=O)[C@@H](CO)NC(=O)[C@@H](CCC(N)=O)NC(=O)[C@@H](CO)NC(=O)[C@@H](CO)NC(=O)[C@H](N)CO)C(=O)N[C@H](Cc1ccc(O)cc1)C(=O)N[C@H](CO)C(=O)N[C@H]1CSSC[C@@H](C(=O)N[C@H](C(N)=O)[C@@H](C)O)NC(=O)[C@H]([C@@H](C)O)NC(=O)[C@H](CCCCN)NC(=O)[C@@H](Cc2c[nH]c3ccccc23)NC(=O)[C@H](Cc2ccccc2)NC1=O
B6: D-Ser-D-Ser-D-Ser-D-Ser-D-Ser-L-Lys-D-Tyr-D-Tyr-cyclo[L-Cys-L-Phe-D-Trp-L-Lys-L-Thr-L-Cys]-L-Thr-NH2 (peptide)
peptide: [dS][dS][dS][dS][dS]K[dY][dY]CF[dW]KTCT-NH2
modifications: disulfide 9-14; N-terminus assumed
SMILES: C[C@@H](O)[C@H](NC(=O)[C@@H]1CSSC[C@H](NC(=O)[C@@H](Cc2ccc(O)cc2)NC(=O)[C@@H](Cc2ccc(O)cc2)NC(=O)[C@H](CCCCN)NC(=O)[C@@H](CO)NC(=O)[C@@H](CO)NC(=O)[C@@H](CO)NC(=O)[C@@H](CO)NC(=O)[C@H](N)CO)C(=O)N[C@@H](Cc2ccccc2)C(=O)N[C@H](Cc2c[nH]c3ccccc23)C(=O)N[C@@H](CCCCN)C(=O)N[C@@H]([C@@H](C)O)C(=O)N1)C(N)=O
B7: DOTA-D-Ser-D-Ser-D-Ser-D-Ser-D-Ser-D-Ser-D-Ser-D-Ser-D-Ser-D-Ser-L-Lys-D-Tyr-D-Tyr-cyclo[L-Cys-L-Phe-D-Trp-L-Lys-L-Thr-L-Cys]-L-Thr-NH2 (peptide)
peptide: {DOTA}-[dS][dS][dS][dS][dS][dS][dS][dS][dS][dS]K[dY][dY]CF[dW]KTCT-NH2
modifications: disulfide 14-19
SMILES: C[C@@H](O)[C@H](NC(=O)[C@@H]1CSSC[C@H](NC(=O)[C@@H](Cc2ccc(O)cc2)NC(=O)[C@@H](Cc2ccc(O)cc2)NC(=O)[C@H](CCCCN)NC(=O)[C@@H](CO)NC(=O)[C@@H](CO)NC(=O)[C@@H](CO)NC(=O)[C@@H](CO)NC(=O)[C@@H](CO)NC(=O)[C@@H](CO)NC(=O)[C@@H](CO)NC(=O)[C@@H](CO)NC(=O)[C@@H](CO)NC(=O)[C@@H](CO)NC(=O)CN2CCN(CC(=O)O)CCN(CC(=O)O)CCN(CC(=O)O)CC2)C(=O)N[C@@H](Cc2ccccc2)C(=O)N[C@H](Cc2c[nH]c3ccccc23)C(=O)N[C@@H](CCCCN)C(=O)N[C@@H]([C@@H](C)O)C(=O)N1)C(N)=O
B8: D-Ser-D-Ser-D-Ser-D-Ser-D-Ser-L-Lys-D-Ser-D-Ser-cyclo[L-Cys-L-Phe-D-Trp-L-Lys-L-Thr-L-Cys]-L-Thr-NH2 (peptide)
peptide: [dS][dS][dS][dS][dS]K[dS][dS]CF[dW]KTCT-NH2
modifications: disulfide 9-14; N-terminus assumed
SMILES: C[C@@H](O)[C@H](NC(=O)[C@@H]1CSSC[C@H](NC(=O)[C@@H](CO)NC(=O)[C@@H](CO)NC(=O)[C@H](CCCCN)NC(=O)[C@@H](CO)NC(=O)[C@@H](CO)NC(=O)[C@@H](CO)NC(=O)[C@@H](CO)NC(=O)[C@H](N)CO)C(=O)N[C@@H](Cc2ccccc2)C(=O)N[C@H](Cc2c[nH]c3ccccc23)C(=O)N[C@@H](CCCCN)C(=O)N[C@@H]([C@@H](C)O)C(=O)N1)C(N)=O

Biological target: somatostatin subtype 2 rat receptor (rat, UniProt P30680 1-369)
Test: cell-based or functional assay

Chain of somatostatin subtype 2 rat receptor (P30680 whole entry): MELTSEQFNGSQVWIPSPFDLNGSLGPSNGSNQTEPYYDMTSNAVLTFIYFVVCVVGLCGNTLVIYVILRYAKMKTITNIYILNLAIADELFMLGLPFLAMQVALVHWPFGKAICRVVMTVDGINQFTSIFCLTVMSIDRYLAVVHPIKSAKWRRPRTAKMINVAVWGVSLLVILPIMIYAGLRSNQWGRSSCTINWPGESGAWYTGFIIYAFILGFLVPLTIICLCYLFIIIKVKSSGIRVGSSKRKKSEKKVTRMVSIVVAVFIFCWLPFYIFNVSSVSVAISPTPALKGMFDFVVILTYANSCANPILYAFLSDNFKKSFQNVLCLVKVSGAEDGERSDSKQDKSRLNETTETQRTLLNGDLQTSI

Row | Binder | IC50 (nM), inhibition of GH release from primary cultures of rat pituitary cells [nM]
1 | B1 | 0.57
2 | B2 | 0.12
3 | B3 | 0.55
4 | B4 | 0.32
5 | mercaptoacetate-GG[dD][dS][dS][dS][dS][dS][4Pal][dY][dS]CF[dW]KTCT-NH2 (disulfide 12-17) | 0.97
6 | B5 | 0.93
7 | B6 | 0.14
8 | {MTXCOO‑CH2CO}-[dS][dS][dS][dS][dS]K[dY][dY]CF[dW]KTCT-NH2 (cysteine pairing not given here) [MTXCOO-CH2CO-(D-Ser)5-Lys-D-Tyr-D-Tyr-Cys-Phe-D-Trp-Lys-Thr-Cys-Thr-NH2] | 0.16
9 | B7 | 0.71
10 | B8 | 3.29

Source: US20050070470A1 (ADMINISTRATORS OF THE TULANE EDUCATIONAL FUND, published 2005)
